Changes are numbered by the printed parent chain. In names and notes the source's numbering stands.
B1: GM-ALS1: Glycine Max ALS1 protein, wild type (protein)
chain: MAATASRTTRFSSSSSHPTFPKRITRSTLPLSHQTLTKPNHALKIKCSISKPPTAAPFTKEAPTTEPFVSRFASGEPRKGADILVEALERQGVTTVFAYPGGASMEIHQALTRSAAIRNVLPRHEQGGVFAAEGYARSSGLPGVCIATSGPGATNLVSGLADALMDSVPVVAITGQVPRRMIGTDAFQETPIVEVSRSITKHNYLILDVDDIPRVVAEAFFVATSGRPGPVLIDIPKDVQQQLAVPNWDEPVNLPGYLARLPRPPAEAQLEHIVRLIMEAQKPVLYVGGGSLNSSAELRRFVELTGIPVASTLMGLGTFPIGDEYSLQMLGMHGTVYANYAVDNSDLLLAFGVRFDDRVTGKLEAFASRAKIVHIDIDSAEIGKNKQAHVSVCADLKLALKGINMILEEKGVEGKFDLGGWREEINVQKHKFPLGYKTFQDAISPQHAIEVLDELTNGDAIVSTGVGQHQMWAAQFYKYKRPRQWLTSGGLGAMGFGLPAAIGAAVANPGAVVVDIDGDGSFIMNVQELATIRVENLPVKILLLNNQHLGMVVQWEDRFYKSNRAHTYLGDPSSESEIFPNMLKFADACGIPAARVTKKEELRAAIQRMLDTPGPYLLDVIVPHQEHVLPMIPSNGSFKDVITEGDGRTRY
modifications: GLYCINE MAX
notes: Glycine Max ALS1 protein, wild type
B2: SAMS: GM-ALS_P178A_W555L: SAMS promoter driving HRA ALS variant SEQ ID NO 10 in transgenic soybean (protein)
chain: B1 chain with P178A, W555L
B3: UBQ10: GM-ALS_A103T_P178S_D357E: UBQ10 promoter driving ALS variant SEQ ID NO 8 in transgenic soybean (protein)
chain: B1 chain with A103T, P178S, D357E
B4: SAMS: GM-ALS_A103T_P178S_D357E: SAMS promoter driving ALS variant SEQ ID NO 8 in transgenic soybean (protein)
chain: B1 chain with A103T, P178S, D357E
B5: SAMS: GM-ALS_A103T_P178S: SAMS promoter driving ALS variant SEQ ID NO 7 in transgenic soybean (protein)
chain: B1 chain with A103T, P178S
B6: UBQ10: GM-ALS_A103T_P178S: UBQ10 promoter driving ALS variant SEQ ID NO 7 in transgenic soybean (protein)
chain: B1 chain with A103T, P178S
B7: SAMS: GM-ALS_P178A: SAMS promoter driving ALS variant SEQ ID NO 9 in transgenic soybean (protein)
chain: B1 chain with P178A
B8: SAMS: GM-ALS W555L: SAMS promoter driving ALS variant SEQ ID NO 26 in transgenic soybean (protein)
chain: B1 chain with W555L
B9: UBQ10: GM-ALS_P178S_D357E: UBQ10 promoter driving ALS variant SEQ ID NO 17 in transgenic soybean (protein)
chain: B1 chain with P178S, D357E
B10: UBQ10: GM-ALS_W555L: UBQ10 promoter driving ALS variant SEQ ID NO 26 in transgenic soybean (protein)
chain: B1 chain with W555L

Legend:
[1] = test system: G. max ALS1 protein; assay: Colorimetric ALS kinetic assay (Km, kcat) with pyruvate as substrate; format: biochemical, Glycine max
Method in brief: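 Recombinant soybean ALS variants, mature N-terminus from S48, His-MBP tag cleaved off; 0.8 ug enzyme per well in 25 mM potassium phosphate, 15 mM MgCl2, 0.7 mM TPP, 28 uM FAD, 0.2 mg/ml BSA, 0-100 mM pyruvate. Km and Vmax from hyperbolic fit; kcat from Vmax and protein concentration.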

[2] = test system: soybean embryogenic suspension tissue; assay: Chlorsulfuron selectable marker activity in soybean transformation; format: cell-based; settings: chlorsulfuron selection 50 then 100 ppb; SAMS (low) or UBQ10 (high) expression promoter as in label
Excerpt: Soybean plants expressing ALS variant transgenes were produced using the method of particle gun bombardment (Klein et al. (1987) Nature 327:70-73, U.S. Pat. No. 4,945,050) using a DuPont BIOLISTIC® PDS1000/He instrument. The vectors used to test modified ALS genes as selectable markers in soybean transformation were composed of the S-adenosylmethionine synthase (SAMS) promoter (U.S. Pat. No. 7,741,537) from soybean, or the polyubiquitin 10 (AT-UBQ10) promoter (DuPont) from Arabidopsis, driving the modified ALS coding sequence followed by the native soybean ALS terminator region. The selection agent used during the transformation process was chlorsulfuron. Bombardments were carried out with linear DNA fragments purified away from any bacterial vector DNA. Bombarded soybean embryogenic suspension tissue was cultured for one week in the absence of chlorsulfuron, and then placed in liquid selection medium for 6 weeks. Selection in liquid cultures was at 50 parts per billion (ppb) chlorsulfuron for three weeks, then elevated to 100 ppb. Putative transgenic suspension tissue was sampled for PCR analysis to confirm the presence of the modified ALS gene. Putative transgenic suspension culture tissue was maintained in selection medium for 3 weeks to obtain enough tissue for plant regeneration. […]

[3] = test system: G. max ALS1 protein; assay: Substrate specificity ratio (Rf), pyruvate versus 2-ketobutyrate, LC-MS of reduced products; format: biochemical, Glycine max; settings: ratio of [pyruvate] to [2-ketobutyrate] giving equal rates of acetolactate and acetohydroxybutyrate formation, 25 mM pyruvate
Method in brief: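 Pyruvate was held at 25 mM while 2-ketobutyrate was varied. Reactions were quenched with sodium borohydride, and the reduced acetolactate and acetohydroxybutyrate were separated on C18 with a methanol gradient and quantified by MS integration. Rf is the [pyruvate]/[2-ketobutyrate] ratio that gives equal formation rates of both products.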

[4] = test system: soybean plants; assay: Field spray test of homozygous T3 soybean plants with Affinity Broadspec; format: in vivo; settings: Affinity Broadspec (thifensulfuron + tribenuron) 1 oz product per acre
Protocol: Homozygous T3 soybean plants with and without ALS variant transgenes were grown in a field study and sprayed at the V2 to V4 growth stage with a commercial formulation of Affinity Broadspec at 1 oz product per acre (2× typical field rate). Affinity Broadspec contains 25% thifensulfuron and 25% tribenuron by volume. The herbicide was applied foliarly with nonionic surfactant. The herbicide response for individual events was determined by comparing to untreated plants of similar genetic background. Visual injury is on a scale of 0 to 100% injury (0=no effect to 100=dead plant). The substituted ALS variants gave substantially more protection to ALS-inhibitors than overexpression of the native ALS gene.

[5] = test system: soybean plants; assay: Spray test of homozygous transgenic soybean plants with five ALS-inhibitor herbicides; format: in vivo; settings: homozygous T1 or T2 plants; for Lowest % injury Tribenuron-methyl: tribenuron-methyl 16 g ai/ha foliar; for Lowest % injury Chlorimuron: chlorimuron 32 g ai/ha foliar; for Lowest % injury Imazapyr: imazapyr 4 g ai/ha foliar; for Lowest % injury Rimsulfuron: rimsulfuron 8 g ai/ha foliar; for Lowest % injury Thifensulfuron-methyl: thifensulfuron-methyl 16 g ai/ha foliar
Protocol: T1 or T2 soybean plants were evaluated with qPCR to confirm they were homozygous for the transgene. Plants were sprayed at the V1 to V2 growth stage with the commercial formulations of chlorimuron (32 g ai/ha), tribenuron-methyl (16 g ai/ha), thifensulfuron-methyl (16 g ai/ha), rimsulfuron (8 g ai/ha), and imazapyr (4 g ai/ha). Each herbicide was applied foliarly with nonionic surfactant in a spray volume of 374 L/ha. The herbicide response for individual plants was determined by comparing to untreated plants of similar genetic background. Visual injury was scored on a scale of 0 to 100% injury (0=no effect to 100=dead plant). The lowest response for four treated plants of a single event from each construct with the listed expression cassette is reported.

[6] = test system: soybean plants; assay: Chlorsulfuron spray test of transgenic T1 soybean plants; format: in vivo; settings: chlorsulfuron 3 g ai/ha foliar; homozygous T1 plants; 8 days after treatment; 0=no effect, 100=dead plant
Protocol: T1 plants, each having an ALS variant transgene, were grown to the V1 to V2 growth stage and then sprayed with commercial chlorsulfuron formulation at a rate of 3 g ai/ha. All chlorsulfuron treatments were applied foliarly with 0.25% nonionic surfactant in a spray volume of 374 L/ha. Individual plants were compared to untreated plants of similar genetic background, evaluated for herbicide response at eight days after treatment and assigned a visual response score from 0 to 100% injury (0=no effect to 100=dead plant at day 8).
Results in Table 8 list the lowest injury among plants of a single event for constructs containing the listed expression cassette. The amino acid substituted ALS variants provided more protection than the overexpression of the native ALS gene. Seed was produced from a number of T1 plants and advanced to more extensive herbicide testing in the T2 generation.

Row | Molecule | Lowest % injury [4] | Lowest % injury Tribenuron-methyl [5] | Lowest % injury [6] | Lowest % injury Chlorimuron [5] | Lowest % injury Imazapyr [5] | Lowest % injury Rimsulfuron [5] | Lowest % injury Thifensulfuron-methyl [5] | further results
1 | B1 | – | – | – | – | – | – | – | Km [1]: 3000 µM; kcat [1]: 0.933 s⁻¹; Selectable Marker Activity [2]: not able to act as a selection marker; Substrate specificity ratio (Rf) [3]: 114.0; Substrate specificity ratio (Rf) ([3]; listed as Glycine max ALS1): ~114; Substrate specificity ratio (Rf) ([3]; listed as wild type enzyme): ~114
2 | B2 | 5% | 75% | 10% | – | – | – | – | –
3 | B3 | – | 55% | 75% | 5% | 50% | 80% | 0% | –
4 | B4 | – | – | 80% | – | – | – | – | –
5 | B5 | – | – | 80% | – | – | – | – | –
6 | B6 | 57% | 65% | 40% | 35% | 45% | 80% | 35% | –
7 | B7 | – | 80% | 0% | 0% | – | 80% | 25% | –
8 | B8 | – | – | 80% | – | – | – | – | –
9 | B9 | 13% | 20% | 5% | 20% | 40% | 70% | 20% | –
10 | B10 | – | – | 75% | 5% | 10% | 80% | 5% | –
